In US20080008707A1, “Denatured collagen peptides and uses thereof” (Cell-Matrix, Inc., priority 2006, published 2008):
Square brackets hold non-standard residues; d marks the D form. Ends that are not written are not given here. Hyp = O=C(O)[C@@H]1C[C@@H](O)CN1

Assays:
D93 = assay: Peptide array screening ELISA: D93 binding to biotinylated synthetic collagen peptides; details: for binding activity by D93 (primary peptide array): 10 μg/mL D93, 16-mers with N-terminal biotin, 50% proline/hydroxyproline mixture at each proline; for MAB BINDING (OD450nM): D93 at 10 μg/mL, average of duplicate tests, secondary array, proline or hydroxyproline at each proline position
Method: The synthesis of short peptide arrays or single peptides was contracted to New England Peptide, Gardner, Mass. A peptide array (primary array) was initially constructed which corresponded to specific locations in the protein sequences that were identified in by N-terminal sequencing reactions as described above. The peptide array consisted of a 96-well microplate template containing individual, overlapping peptides (˜1 to 10 mg/well) corresponding to a contiguous sequence of the human collagen type alpha I chain (between residues G1,064 and T1,669) with an N-terminal biotin and 50% hydroxyproline or proline mixture for each proline residue, with a length of 16 amino acids and overlap of 10 amino acids with the adjacent protein sequence. Peptides were dissolved in 400 μL DMSO to achieve a stock peptide concentration of 2.5 to 25 mg/mL.
The ELISA assay described above was used screen peptides for D93 binding activity. Briefly, 100 μL of streptavidin at 10 μg/mL in PBS was coated onto 96-well microtiter plates from 12 to 18 hours at 2 to 8° C. Plates were blocked with 1% BSA/PBS as above. D93 was diluted to 10 μg/mL in 1% BSA/PBS, and 100 μL per well was added, in duplicate, as described above and incubated for 1 hour at room temperature. The secondary anti-human IgG-HRP, substrate development and plate reader steps were as described above. Peptides which were bound by D93 were further tested for inhibition of D93 binding to human heat-denatured-collagen IV using the ELISA described above. Peptides and D93 antibody were prepared at a 2× concentration in 1% BSA/PBS of the final test concentration and pre-mixed in 1.7 mL microfuge for 15 minutes prior to adding to the microplate wells.
A second peptide array was constructed based on permutations of the protein sequence (collagen IV alpha I chain residues 1337-1352, termed “peptide 40” of the primary array) in the primary array that reacted with D93. The secondary array consisted of individual peptides with either proline or hydroxyproline at each proline residue in the peptide PGAKGLPGPPGPPGPY (SEQ ID NO: 1).

[1] = target: D93, recombinant humanized IgG1 kappa antibody targeting denatured-collagen; assay: competition ELISA on coated human dn-collagen IV
[2] = target: HUI77, murine IgM anti-denatured-collagen monoclonal antibody; assay: competition ELISA on coated dn-collagen IV
[3] = target: HUI77, murine IgM anti-denatured-collagen monoclonal antibody; assay: competition ELISA on coated dn-collagen IV; * separate assay
[4] = target: D93, recombinant humanized IgG1 kappa antibody targeting denatured-collagen; assay: competition ELISA on coated human dn-collagen IV; * separate assay

D93, recombinant humanized IgG1 kappa antibody targeting denatured-collagen, sequence (heavy, as listed by the source, chain 1 of 2): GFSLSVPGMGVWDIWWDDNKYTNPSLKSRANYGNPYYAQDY
D93, recombinant humanized IgG1 kappa antibody targeting denatured-collagen, sequence (light, as listed by the source, chain 2 of 2): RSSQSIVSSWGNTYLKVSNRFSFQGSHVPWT

Molecule | binding activity by D93 (primary peptide array) (D93) | MAB BINDING (OD450nM) (D93) | % inhibition of D93 binding to dn-collagen IV, peptide 1 µM [1] | % inhibition of D93 binding to dn-collagen IV, peptide 10 µM [1] | % inhibition of D93 binding to dn-collagen IV, peptide 100 µM [1] | % inhibition of D93 binding to dn-collagen IV, peptide 1000 µM [1] | % inhibition of HUI77 binding to dn-collagen IV, peptide 10 µM [2] | % inhibition of HUI77 binding to dn-collagen IV, peptide 100 µM [2] | % inhibition of HUI77 binding to dn-collagen IV, peptide 1000 µM [2] | % inhibition of HUI77 binding to dn-collagen IV, peptide 1000 µM [3] | % inhibition of D93 binding to dn-collagen IV, peptide 1000 µM [4] | % inhibition of HUI77 binding to dn-collagen IV, peptide 10 µM [3] | % inhibition of HUI77 binding to dn-collagen IV, peptide 100 µM [3] | % inhibition of D93 binding to dn-collagen IV, peptide 1 µM [4] | % inhibition of D93 binding to dn-collagen IV, peptide 10 µM [4] | % inhibition of D93 binding to dn-collagen IV, peptide 100 µM [4]
13: peptide 13 of the primary collagen IV alpha 1 array: biotinylated 16-mer, 50% proline/hydroxyproline at each proline (PGAKGLPGPPGPPGPY; not fully specified; also: biotinylated, position not given here) [compound 13] | higher activity than the others | 0.348 OD450nM | – | – | – | – | – | – | – | – | – | – | – | – | – | –
peptide 40: primary array peptide, collagen IV alpha I chain residues 1337-1352, 50% proline/hydroxyproline mixture; b687 equates it with SEQ ID NO: 2 (XGAKGLPGPXGPXGPY; not fully specified; X: randomised place (mixture)) | higher activity than the others | – | – | – | – | – | – | – | – | – | – | – | – | – | – | –
1 (PGAKGLPGPPGPPGPY) [compound 1] | – | 0.136 OD450nM | – | – | – | – | – | – | – | – | – | – | – | – | – | –
[Hyp]GAKGLPGP [synthetic peptide No. 13, … (SEQ ID NO: 17)] | – | – | 11% | 6% | 4% | 11.5% | 8% | 10.5% | 10% | – | – | – | – | – | – | –
LPGP[Hyp]GP[Hyp]GP [synthetic peptide No. 5, … (SEQ ID NO: 20)] | – | – | 12% | 41.5% | 89% | 92.5% | 10% | 14% | 73% | – | – | – | – | – | – | –
GPXGPXG (contains hydroxyproline ('where P is hydroxyproline'); positions marked in the tables but lost in this text) [synthetic peptide No. 15, GPPGPPG (SEQ ID NO: 32)] | – | – | 8% | 17% | 64% | 92.5% | 6% | 7.5% | 77% | – | – | – | – | – | – | –
GPPG (also: hydroxyproline marking, if any, lost) [synthetic peptide No. 22, GPPG (SEQ ID NO: 35)] | – | – | 7% | 6% | 3.5% | 7.5% | 2.5% | 8% | 3.5% | – | – | – | – | – | – | –
CTWPRHHTTDALL [non-collagen control peptide No. 6, … (SEQ ID NO: 39)] | – | – | 4.5% | 1% | 0% | 3.5% | 6.5% | 6.5% | 6.5% | 11.1% | 4.9% | – | – | – | – | –
[Hyp]GAKGLPGP[Hyp]GP[Hyp]GPY [synthetic peptide No. 12, … (SEQ ID NO: 2)] | – | – | 30% | 81% | 93.5% | 93.5% | 7.5% | 18% | 86.5% | – | – | – | – | – | – | –
LPGP[Hyp]GP[Hyp]G [synthetic peptide No. 20, … (SEQ ID NO: 21)] | – | – | 13% | 35.5% | 85.5% | 92.5% | 6.5% | 18% | 86% | – | – | – | – | – | – | –
F[Hyp]GP[Hyp]GPDGL[Hyp]GSMGP[Hyp]G [synthetic peptide No. 7, … (SEQ ID NO: 36)] | – | – | 11% | 43% | 89.5% | 93.5% | 4.5% | 9% | 62% | – | – | – | – | – | – | –
LPGFPG (also: hydroxyproline marking, if any, lost) [synthetic peptide No. 24, LPGFPG (SEQ ID NO: 38)] | – | – | – | – | – | – | – | – | – | 3.7% | 11.6% | 10.2% | 0% | 5.4% | 7.8% | 8.3%
GPPGPPG (also: hydroxyproline at marked P positions, if any, marking lost) [synthetic peptide No. 23, GPPGPPG (SEQ ID NO: 33)] | – | – | 5% | 4.5% | 1.5% | 6.5% | 1.5% | 2% | 1% | – | – | – | – | – | – | –
GP[Hyp]GP[Hyp]GPY [synthetic peptide No. 3, … (SEQ ID NO: 30)] | – | – | 33% | 82.5% | 94% | 94% | 8.5% | 12% | 78% | 63% | – | – | 0% | – | 79.9% | 90.3%
